In US20030113867A1:
One block for each binder: values may come before it.

Assays:
[1] = target: prokineticin receptor(s) of guinea pig ileal smooth muscle (ileal membrane preparation / ileum longitudinal muscle) (guinea pig); assay: cell-based or functional assay
[2] = target: prokineticin receptor expressed endogenously on M2A7 melanoma cells (ATCC CRL-2500); assay: cell-based or functional assay
[3] = target: prokineticin receptor(s) of guinea pig ileal smooth muscle (ileal membrane preparation / ileum longitudinal muscle) (guinea pig); assay: saturation binding of 125I-prokineticin 1 to guinea pig ileal membranes, Scatchard analysis, two-site model, low-affinity site, n=3
[4] = target: prokineticin receptor(s) of guinea pig ileal smooth muscle (ileal membrane preparation / ileum longitudinal muscle) (guinea pig); assay: saturation binding of 125I-prokineticin 1 to guinea pig ileal membranes, high-affinity site, n=3
[5] = target: prokineticin receptor(s) of guinea pig ileal smooth muscle (ileal membrane preparation / ileum longitudinal muscle) (guinea pig); assay: saturation binding of 125I-prokineticin 1 to guinea pig ileal membranes, low-affinity site, n=3
[6] = target: prokineticin receptor(s) of guinea pig ileal smooth muscle (ileal membrane preparation / ileum longitudinal muscle) (guinea pig); assay: competition radioligand binding on guinea pig ileal membranes, filtration; unlabeled prokineticin 1 varied against 125I-prokineticin 1 (20 pM)
[7] = target: prokineticin receptor(s) of guinea pig ileal smooth muscle (ileal membrane preparation / ileum longitudinal muscle) (guinea pig); assay: saturation binding of 125I-prokineticin 1 to guinea pig ileal membranes, Scatchard analysis, two-site model, high-affinity site, n=3
[8] = target: prokineticin receptor(s) of guinea pig ileal smooth muscle (ileal membrane preparation / ileum longitudinal muscle) (guinea pig); assay: displacement of 125I-prokineticin 1 (20 pM) from guinea pig ileal membranes by unlabeled prokineticin 1, two-site model, low-affinity site
[9] = target: prokineticin receptor expressed endogenously on M2A7 melanoma cells (ATCC CRL-2500); assay: binding of iodinated prokineticin 1 to M2A7 melanoma cells
[10] = target: prokineticin receptor(s) of guinea pig ileal smooth muscle (ileal membrane preparation / ileum longitudinal muscle) (guinea pig); assay: displacement of 125I-prokineticin 1 (20 pM) from guinea pig ileal membranes by unlabeled prokineticin 1, two-site model, high-affinity site
[11] = target: prokineticin receptor(s) of guinea pig ileal smooth muscle (ileal membrane preparation / ileum longitudinal muscle) (guinea pig); assay: competition radioligand binding on guinea pig ileal membranes, filtration; unlabeled prokineticin 2 varied against 125I-prokineticin 1 (20 pM)
[12] = target: prokineticin receptor(s) of guinea pig ileal smooth muscle (ileal membrane preparation / ileum longitudinal muscle) (guinea pig); assay: displacement of 125I-prokineticin 1 (20 pM) from guinea pig ileal membranes by unlabeled prokineticin 2, low-affinity site
[13] = target: prokineticin receptor(s) of guinea pig ileal smooth muscle (ileal membrane preparation / ileum longitudinal muscle) (guinea pig); assay: displacement of 125I-prokineticin 1 (20 pM) from guinea pig ileal membranes by unlabeled prokineticin 2, high-affinity site

EC50 of ileal contraction relative to prokineticin 1 or prokineticin 2 [1]: 8 fold | time constant to midway contraction of ileal strips [1]: 40 min
B1: chimeric prokineticin 21 (exons 1 and 2 of prokineticin 2, exon 3 of prokineticin 1) (ligand)
chain: AVITGACDKDSQCGGGMCCAVSIWVKSIRICTPMGKLGDSCHPLTRKVPFFRKRKHHTCPCLPNLLCSRFPDGRYRCSMDLKNINF

calcium mobilization in M2A7 melanoma cells (FLIPR), EC50 [2]: 12 nM | contraction of guinea-pig ileum longitudinal muscle, ED50 [1]: 0.46 nM | time constant to midway contraction of ileal strips [1]: 15 min | Kd [3]: 0.227 nM | Bmax (fmol/mg of protein) [4]: 7.8 | Bmax (fmol/mg of protein) [5]: 26.4 | IC50 (read off the curve) [6]: 5 nM | Kd [7]: 0.005 nM | Ki [8]: 1.5 nM | receptor level (fmole/mg protein) [9]: 150 | Ki [10]: 0.008 nM
B2: recombinant refolded human prokineticin 1 with C-terminal 6xHis-tag (ligand)
chain: AVITGACERDVQCGAGTCCAISLWLRGLRMCTPLGREGEECHPGSHKVPFFRKRKHHTCPCLPNLLCSRFPDGRYRCSMDLKNINFHHHHHH
modifications: 125I-iodinated by the iodogen method where used as the labeled ligand; plain where used as unlabeled competitor; five disulfide bonds

calcium mobilization in M2A7 melanoma cells (FLIPR), EC50 [2]: 21 nM | contraction of guinea-pig ileum longitudinal muscle, ED50 [1]: 0.9 nM | time constant to midway contraction of ileal strips [1]: 15 min | IC50 (read off the curve) [11]: 4 nM | Ki [12]: 1.22 nM | Ki [13]: 0.0042 nM
B3: recombinant refolded human prokineticin 2 with C-terminal 6xHis-tag (ligand)
chain: AVITGACDKDSQCGGGMCCAVSIWVKSIRICTPMGKLGDSCHPLTRKVPFFGRRMHHTCPCLPGLACLRTSFNRFICLAQKHHHHHH

time constant to midway contraction of ileal strips [1]: 40 min
B4: chimeric prokineticin 12 (exons 1 and 2 of prokineticin 1, exon 3 of prokineticin 2) (ligand)
chain: AVITGACERDVQCGAGTCCAISLWLRGLRMCTPLGREGEECHPGSHKVPFFGRRMHHTCPCLPGLACLRTSFNRFICLAQK
